# Assay results: publication PMC4447404
# pKd: −log10 of the molar value. Values joined by “and” are separate entries in the source; they are usually repeats but may differ in a detail not shown here. Identical values can stand only once.
# Tested on: DnaA-his (Bacillus subtilis)
# Experiment: IDAP-Seq (affinity pull-down)
# Conditions: 550 nM DnaA, 40 mM HEPES-KOH pH 7.6, 150 mM K-glutamate, 2.5 mM ATP or ADP, 10 mM Mg acetate, 0.2 mM DTT, 50 ug/ml BSA, 0.1 mM EDTA, 20% glycerol, 4% sucrose, 0.2 mg/ml …
row,Substance,binding signal (fold ATP/ADP DNA recovered)
1,yhdF internal,24

# Same assay, conditions: 40 mM HEPES-KOH pH 7.6, 150 mM K-glutamate, 2.5 mM ATP or ADP, 10 mM Mg acetate, 0.2 mM DTT, 50 ug/ml BSA, 0.1 mM EDTA, 20% glycerol, 4% sucrose, 0.2 mg/ml …
row,Substance,pKd
1,codV internal (peak 9),5.96 and 5.72
2,gcp/ydiF downstream (peak 4),6.82 and 6.48
3,ggaA internal (peak 18),5.57 and 5.32
4,oriC dnaA-dnaN (peak 2),6.80 and 6.52
5,oriC upstream of dnaA (peak 1),6.68 and 6.48
6,rlmCD internal (peak 20),5.12 and 5.17
7,rplB internal (peak 10),5.85 and 5.92
8,trmE upstream / jag downstream (peak 5),6.48 and 6.37
9,yhcA internal (peak 12),5.44 and 5.55
10,yhcN internal (peak 15),4.71 and 5.16
11,ynaI downstream / xynP upstream (peak 11),5.70 and 5.52
12,yopH internal (peak 19),5.31 and 5.30
13,yorF internal (peak 13),5.70 and 5.52
14,yqeG/sda upstream (peak 7),6.82 and 6.29
15,yutJ internal (peak 16),5.60 and 5.54
16,yvmC/yvmB upstream (peak 14),5.66 and 5.36
17,ywcI/vpr upstream (peak 3),6.89 and 6.77
18,ywlC upstream / ywlB downstream (peak 6),6.60 and 6.35
19,yydA upstream / yyzF downstream (peak 8),6.80 and 6.48
20,yydH internal (peak 17),5.62 and 5.34
